# Assay results as given in patent US20240417459A1 (published 2024).
# B1: 9H9-7A3 LH (bispecific antibody)
# heavy: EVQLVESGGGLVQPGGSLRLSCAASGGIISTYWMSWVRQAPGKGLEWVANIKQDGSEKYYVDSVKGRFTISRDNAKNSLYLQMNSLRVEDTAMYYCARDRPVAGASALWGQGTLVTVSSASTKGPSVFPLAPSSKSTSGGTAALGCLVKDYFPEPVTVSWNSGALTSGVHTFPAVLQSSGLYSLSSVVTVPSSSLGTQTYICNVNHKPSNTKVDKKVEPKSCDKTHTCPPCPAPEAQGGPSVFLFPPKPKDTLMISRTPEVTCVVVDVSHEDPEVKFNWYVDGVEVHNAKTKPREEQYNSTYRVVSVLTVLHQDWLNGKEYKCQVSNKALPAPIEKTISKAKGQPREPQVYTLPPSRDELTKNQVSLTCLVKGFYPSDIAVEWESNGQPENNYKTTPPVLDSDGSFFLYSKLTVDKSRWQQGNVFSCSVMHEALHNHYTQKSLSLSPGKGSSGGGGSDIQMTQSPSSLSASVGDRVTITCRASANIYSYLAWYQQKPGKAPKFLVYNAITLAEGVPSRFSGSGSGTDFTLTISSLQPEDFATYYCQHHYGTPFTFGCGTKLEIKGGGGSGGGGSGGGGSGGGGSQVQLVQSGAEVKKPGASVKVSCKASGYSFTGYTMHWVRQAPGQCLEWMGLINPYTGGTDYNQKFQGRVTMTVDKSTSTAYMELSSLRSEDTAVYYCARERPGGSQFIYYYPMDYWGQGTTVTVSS
# light: DIQMTQSPSTLSASVGDRVTITCRASQSISGWLAWYQQKPGKAPKLLIYKASSLESGVPSRFSGSGSGTEFTLTISSLQPDDFATYYCQQYYGSSRTFGQGTNVEIKRTVAAPSVFIFPPSDEQLKSGTASVVCLLNNFYPREAKVQWKVDNALQSGNSQESVTEQDSKDSTYSLSSTLTLSKADYEKHKVYACEVTHQGLSSPVTKSFNRGEC
# B2: 9H9-7B1 HL (bispecific antibody)
# heavy: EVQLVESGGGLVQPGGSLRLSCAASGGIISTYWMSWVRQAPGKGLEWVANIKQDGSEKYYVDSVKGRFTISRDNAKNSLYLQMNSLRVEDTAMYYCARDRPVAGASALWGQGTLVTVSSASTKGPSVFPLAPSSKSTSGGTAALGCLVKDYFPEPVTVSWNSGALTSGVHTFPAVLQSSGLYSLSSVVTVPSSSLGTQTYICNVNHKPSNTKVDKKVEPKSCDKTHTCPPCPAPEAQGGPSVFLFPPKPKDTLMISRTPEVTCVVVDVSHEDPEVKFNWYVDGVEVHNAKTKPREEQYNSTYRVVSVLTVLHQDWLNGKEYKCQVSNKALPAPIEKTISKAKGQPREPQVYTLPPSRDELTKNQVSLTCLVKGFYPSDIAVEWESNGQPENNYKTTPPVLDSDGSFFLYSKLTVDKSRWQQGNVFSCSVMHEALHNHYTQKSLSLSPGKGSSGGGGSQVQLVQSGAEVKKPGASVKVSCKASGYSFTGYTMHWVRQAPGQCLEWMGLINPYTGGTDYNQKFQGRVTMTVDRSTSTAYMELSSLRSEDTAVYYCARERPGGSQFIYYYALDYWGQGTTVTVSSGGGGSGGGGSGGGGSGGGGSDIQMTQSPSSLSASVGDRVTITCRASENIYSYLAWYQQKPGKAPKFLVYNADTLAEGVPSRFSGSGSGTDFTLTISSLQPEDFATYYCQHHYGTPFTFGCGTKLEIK
# light: B1 light
# B3: 9H9-7B1 LH (bispecific antibody)
# heavy: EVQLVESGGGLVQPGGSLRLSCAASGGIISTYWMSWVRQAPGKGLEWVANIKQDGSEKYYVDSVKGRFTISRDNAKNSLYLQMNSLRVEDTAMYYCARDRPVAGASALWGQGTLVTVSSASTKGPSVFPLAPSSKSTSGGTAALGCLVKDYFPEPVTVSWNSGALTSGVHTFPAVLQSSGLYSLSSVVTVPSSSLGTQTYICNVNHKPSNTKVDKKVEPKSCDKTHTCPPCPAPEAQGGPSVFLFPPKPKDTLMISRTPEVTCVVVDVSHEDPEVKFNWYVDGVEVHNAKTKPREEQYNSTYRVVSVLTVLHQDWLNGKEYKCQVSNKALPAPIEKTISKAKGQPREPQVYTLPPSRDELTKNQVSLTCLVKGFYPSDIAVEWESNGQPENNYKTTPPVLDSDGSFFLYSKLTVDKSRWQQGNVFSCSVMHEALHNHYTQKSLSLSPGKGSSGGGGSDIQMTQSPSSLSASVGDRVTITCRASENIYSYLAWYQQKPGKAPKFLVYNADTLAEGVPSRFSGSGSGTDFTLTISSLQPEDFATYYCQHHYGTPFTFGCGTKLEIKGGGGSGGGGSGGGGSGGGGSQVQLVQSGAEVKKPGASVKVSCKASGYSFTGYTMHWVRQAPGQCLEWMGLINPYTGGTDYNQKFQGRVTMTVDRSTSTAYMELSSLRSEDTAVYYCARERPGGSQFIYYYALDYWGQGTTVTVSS
# light: B1 light
# B4: 9H9-7A3 HL (bispecific antibody)
# heavy: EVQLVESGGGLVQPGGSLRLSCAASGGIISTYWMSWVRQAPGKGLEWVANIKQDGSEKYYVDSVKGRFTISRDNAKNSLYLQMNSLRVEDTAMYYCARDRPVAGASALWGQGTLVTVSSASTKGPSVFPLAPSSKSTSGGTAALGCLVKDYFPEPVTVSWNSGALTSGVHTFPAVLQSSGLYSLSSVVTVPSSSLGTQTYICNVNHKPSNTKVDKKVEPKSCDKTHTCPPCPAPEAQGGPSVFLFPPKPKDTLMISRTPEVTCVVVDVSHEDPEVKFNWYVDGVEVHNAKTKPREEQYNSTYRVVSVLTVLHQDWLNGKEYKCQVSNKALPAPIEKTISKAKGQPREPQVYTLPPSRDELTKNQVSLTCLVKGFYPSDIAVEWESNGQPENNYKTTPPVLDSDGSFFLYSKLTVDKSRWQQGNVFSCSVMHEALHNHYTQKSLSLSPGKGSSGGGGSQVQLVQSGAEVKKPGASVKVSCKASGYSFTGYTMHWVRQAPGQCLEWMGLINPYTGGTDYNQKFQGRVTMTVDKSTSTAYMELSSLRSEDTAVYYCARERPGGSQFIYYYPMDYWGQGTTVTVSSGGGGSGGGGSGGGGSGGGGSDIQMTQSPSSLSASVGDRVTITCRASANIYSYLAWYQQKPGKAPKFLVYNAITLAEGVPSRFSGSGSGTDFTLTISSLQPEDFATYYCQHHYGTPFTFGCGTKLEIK
# light: B1 light
# Biological target: human ILT4-HIS
# Test: BLI (Octet)
row,Binder,Kd [nM]
1,B1,0.282
2,B2,0.139
3,B3,0.056
4,B4,0.308
